Assay results reported in article PMC6331642.

Tests used:
O00244 [1] = experiment: SEC-MALS; Cu-Atox1 after reaction with TM, with 4.5 mM reducing agents
O00244 [2] = experiment: SEC-MALS; apo-Atox1 after reaction with TM, with 4.5 mM reducing agents
P35670 [3] = experiment: SEC-MALS; Cu-WLN4 after incubation with TM; Superdex 75 10/300 GL, 50 mM MES pH 6.0, 150 mM NaCl, room temperature
P35670 [4] = experiment: SEC-MALS; apo-WLN4 after incubation with TM; Superdex 75 10/300 GL, 50 mM MES pH 6.0, 150 mM NaCl, room temperature

Protein	N with TM (O00244 [1])	N with TM (O00244 [2])	N with TM (P35670 [3])	N with TM (P35670 [4])
Atox1 copper chaperone (protein) MPKHEFSVDMTCGGCAEAVSRVLNKLGGVKYDIDLPNKKVCIESEHSMDTLLATLKKTGKTVSYLGLE	both apo-Atox1 and Cu-Atox1 generated dimeric adducts following reaction with TM	both apo-Atox1 and Cu-Atox1 generated dimeric adducts following reaction with TM	–	–
WLN4, the fourth metal-binding domain of Wilson's disease protein (ATP7B) (protein) TCSTTLIAIAGMTCASCVHSIEGMISQLEGVQQISVSLAEGTATVLYNPSVISPEELRAAIEDMGFEASVVS	–	–	2	2
